Test results reported in the RNAGym collection of RNA variant scans (doi:10.1021/acssynbio.7b00057).

B1: Pistol ribozyme (parent)
chain: GGGUCGUUGUUCCAUAAUCGCGUGGAUAUGGCACGCAAGUUUCUACCGGGCACCGUAAAUGUCCGACUGGAGCCGUUCGGGCGGCUAUAAACAGACCUCAGGCCCGAAGCGUGGCGGCACCUGCCGCCGGUGGUAAAAAAGAUCGGAAGAGCACACGUCU

Variants of: B1
Assay: aptazyme ON/OFF ratio, guanine; higher = stronger switching; co-transcriptional cleavage with and without guanine

| Variant | aptazyme ON/OFF ratio |
| --- | --- |
| U8A G9A U10A U11A C12A C13G | 1.1 |
| U8A G9A U10A U11A C12A C13U | 1.27 |
| U8A G9A U10A U11A C12A C13A | 1.29 |
| U8A G9A U10C U11A C13A | 1.11 |
| U8A G9A U10C U11A C13U | 1.15 |
| U8A G9A U10C U11A C13G | 1.07 |
| U8A G9C U10A U11A C12U C13G | 1.19 |
| U8A G9C U10A U11A C12U C13U | 1.17 |
| U8A G9C U10A U11A C12U C13A | 1.18 |
| U8A G9A U10G U11C C12U | 1.07 |
| U8A G9A U10G U11C C12A | 1.15 |
| U8A G9A U10G U11C C12G | 1.2 |
| U8A G9C U10A C12G C13U | 1.14 |
| U8A G9C U10A C12G C13A | 1.19 |
| U8A G9C U10A C12G C13G | 1.11 |
| U8A G9A U10C U11G C13A | 1.16 |
| U8A G9A U10C U11G C13G | 1.18 |
| U8A G9A U10C U11G C13U | 1.17 |
| U8A G9A U10C C12U | 1.24 |
| U8A G9A U10C C12G | 1.18 |
| U8A G9A U10C C12A | 1.15 |
| U8A G9A U10G U11A C12U C13G | 1.07 |
| U8A G9A U10G U11A C12U C13U | 0.98 |
| U8A G9A U10G U11A C12U C13A | 1.12 |

| Variant | aptazyme ON/OFF ratio |
| --- | --- |
| U8A G9A U10C U11C C13G | 1.03 |
| U8A G9A U10C U11C C13U | 1.05 |
| U8A G9A U10C U11C C13A | 1.03 |
| U8A G9A U10A U11G C12G C13A | 1.21 |
| U8A G9A U10A U11G C12G C13U | 1.29 |
| U8A G9A U10A U11G C12G C13G | 1.4 |
| U8A G9A U10G U11C C12A C13A | 1.12 |
| U8A G9A U10G U11C C12A C13G | 1.08 |
| U8A G9A U10G U11C C12A C13U | 1.16 |
| U8A G9A U10A U11G C13U | 1.18 |
| U8A G9A U10A U11G C13A | 1.12 |
| U8A G9A U10A U11G C13G | 1.08 |
| U8A G9C U10A U11C | 1.01 |
| U8A G9C U10A U11G | 1.3 |
| U8A G9C U10A U11A | 1.37 |
| U8A G9A U10C C13G | 1.04 |
| U8A G9A U10C C13U | 1.11 |
| U8A G9A U10C C13A | 1.06 |
| U8A G9A U10G C12G C13U | 1.26 |
| U8A G9A U10G C12G C13G | 1.1 |
| U8A G9A U10G C12G C13A | 1.14 |
| U8A G9A U10G | 1.46 |
| U8A G9A U10A | 1.65 |
| U8A G9A U10C | 2.54 |

| Variant | aptazyme ON/OFF ratio |
| --- | --- |
| U8A G9A U10C U11A C12G | 1.26 |
| U8A G9A U10C U11A C12A | 1.31 |
| U8A G9A U10C U11A C12U | 1.19 |
| U8A G9A U10C U11C C12A | 1.08 |
| U8A G9A U10C U11C C12G | 1.05 |
| U8A G9A U10C U11C C12U | 1.07 |
| U8A G9C U10A | 1.38 |
| U8A G9A U10A U11A C13A | 1.27 |
| U8A G9A U10A U11A C13G | 1.06 |
| U8A G9A U10A U11A C13U | 1.09 |
| U8A G9A C12G C13A | 1.36 |
| U8A G9A C12G C13G | 1.2 |
| U8A G9A C12G C13U | 1.18 |
| U8A G9A U10A U11G C12A C13A | 1.03 |
| U8A G9A U10A U11G C12A C13G | 1.18 |
| U8A G9A U10A U11G C12A C13U | 1.11 |
| U8A G9A U11C C12A C13G | 1.23 |
| U8A G9A U11C C12A C13A | 1.07 |
| U8A G9A U11C C12A C13U | 1.2 |
| U8A G9A U11C C12G | 1.17 |
| U8A G9A U11C C12U | 1.09 |
| U8A G9A U11C C12A | 1.16 |
| U8A G9A U10G U11G C13A | 1.17 |
| U8A G9A U10G U11G C13G | 1.12 |

| Variant | aptazyme ON/OFF ratio |
| --- | --- |
| U8A G9A U10G U11G C13U | 1.05 |
| U8A G9A U10G C12A C13A | 1.42 |
| U8A G9A U10G C12A C13U | 1.36 |
| U8A G9A U10G C12A C13G | 1.15 |
| U8A G9C U10A U11C C12U C13G | 1.15 |
| U8A G9C U10A U11C C12U C13A | 1.07 |
| U8A G9C U10A U11C C12U C13U | 1.09 |
| U8A G9A U10C U11G C12U C13A | 1.17 |
| U8A G9A U10C U11G C12U C13U | 1.22 |
| U8A G9A U10C U11G C12U C13G | 1.22 |
| U8A G9C U10A C12A C13G | 1.14 |
| U8A G9C U10A C12A C13U | 1.19 |
| U8A G9C U10A C12A C13A | 1.22 |
| U8A G9A C13A | 1.19 |
| U8A G9A C13G | 1.12 |
| U8A G9A C13U | 1.23 |
| U8A G9C | 1.2 |
| U8A G9C C12G C13U | 1.27 |
| U8A G9C C12G C13A | 1.2 |
| U8A G9C C12G C13G | 1.14 |
| U8A G9A U10C C12U C13G | 1.26 |
| U8A G9A U10C C12U C13A | 1.17 |
| U8A G9A U10C C12U C13U | 1.2 |
| U8A G9A U10G U11C C13A | 1.07 |

| Variant | aptazyme ON/OFF ratio |
| --- | --- |
| U8A G9A U10G U11C C13U | 1.04 |
| U8A G9A U10G U11C C13G | 1.05 |
| U8A G9A U11A C12A | 1.08 |
| U8A G9A U11A C12U | 1.05 |
| U8A G9A U11A C12G | 1.31 |
| U8A G9C C13A | 1.11 |
| U8A G9C C13G | 1.04 |
| U8A G9C C13U | 1.17 |
| U8A G9A U10G U11A C12A C13U | 1.25 |
| U8A G9A U10G U11A C12A C13A | 1.19 |
| U8A G9A U10G U11A C12A C13G | 1.24 |
| U8A G9A U10C U11A C12A C13U | 1.17 |
| U8A G9A U10C U11A C12A C13A | 1.16 |
| U8A G9A U10C U11A C12A C13G | 1.24 |
| U8A G9A U10A U11G | 1.34 |
| U8A G9A U10A U11A | 1.35 |
| U8A G9A U10A U11C | 1.05 |
| U8A G9C C12U C13A | 1.21 |
| U8A G9C C12U C13G | 1.15 |
| U8A G9C C12U C13U | 1.2 |
| U8A G9A U10C U11C C12U C13A | 1.04 |
| U8A G9A U10C U11C C12U C13U | 1.05 |
| U8A G9A U10C U11C C12U C13G | 1.05 |
| U8A G9A U11G C13A | 1.13 |

| Variant | aptazyme ON/OFF ratio |
| --- | --- |
| U8A G9A U11G C13G | 1.09 |
| U8A G9A U11G C13U | 1.17 |
| U8A G9A U11A C12G C13G | 1.2 |
| U8A G9A U11A C12G C13U | 1.04 |
| U8A G9A U11A C12G C13A | 1.11 |
| U8A G9C U10A U11G C12A C13G | 1.26 |
| U8A G9C U10A U11G C12A C13A | 1.14 |
| U8A G9C U10A U11G C12A C13U | 1.14 |
| U8A G9A U10C U11G C12A C13G | 1.23 |
| U8A G9A U10C U11G C12A C13U | 1.17 |
| U8A G9A U10C U11G C12A C13A | 1.19 |
| U8A G9A U11G C12A | 1.08 |
| U8A G9A U11G C12U | 1.35 |
| U8A G9A U11G C12G | 1.08 |
| U8A G9C U10A U11G C12G C13A | 1.15 |
| U8A G9C U10A U11G C12G C13G | 1.16 |
| U8A G9C U10A U11G C12G C13U | 1.21 |
| U8A G9C U10A U11C C12G C13U | 1.07 |
| U8A G9C U10A U11C C12G C13A | 1.13 |
| U8A G9C U10A U11C C12G C13G | 1.09 |
| U8A G9C C12G | 1.22 |
| U8A G9C C12U | 1.3 |
| U8A G9C C12A | 1.37 |
| U8A G9A U10G U11G C12U C13U | 1.2 |

| Variant | aptazyme ON/OFF ratio |
| --- | --- |
| U8A G9A U10G U11G C12U C13A | 1.36 |
| U8A G9A U10G U11G C12U C13G | 1.26 |
| U8A G9A U10A U11C C12U C13A | 1.14 |
| U8A G9A U10A U11C C12U C13G | 1.17 |
| U8A G9A U10A U11C C12U C13U | 1.15 |
| U8A G9A U10A U11A C12A | 1.24 |
| U8A G9A U10A U11A C12G | 1.24 |
| U8A G9A U10A U11A C12U | 1.13 |
| U8A G9A U11A C13U | 1.16 |
| U8A G9A U11A C13A | 1.26 |
| U8A G9A U11A C13G | 1.03 |
| U8A G9A U10A U11G C12U | 1.15 |
| U8A G9A U10A U11G C12G | 1.15 |
| U8A G9A U10A U11G C12A | 1.01 |
| U8A G9A C12U C13G | 1.17 |
| U8A G9A C12U C13U | 1.11 |
| U8A G9A C12U C13A | 1.19 |
| U8A G9A U10G U11A C13U | 1.06 |
| U8A G9A U10G U11A C13G | 1.02 |
| U8A G9A U10G U11A C13A | 1.03 |
| U8A G9A U10A U11C C12G C13U | 1.25 |
| U8A G9A U10A U11C C12G C13A | 1.16 |
| U8A G9A U10A U11C C12G C13G | 1.21 |
